From IntAct's records for PubMed 16754960

B1: Ras-related protein Rab-21 (Mus musculus), P35282 (parent)
chain: MAAAGGGAAAAAGRAYSFKVVLLGEGCVGKTSLVLRYCENKFNDKHITTLQASFLTKKLNIGGKRVNLAIWDTAGQERFHALGPIYYRDSNGAILVYDVTDEDSFQKVKNWVKELRKMLGNEICLCIVGNKIDLEKERHVSIQEAESYAESVGAKHYHTSAKQNKGIEELFLDLCKRMIETAQVDERAKGNGSSQAGAARRGVQIIDDEPQAQSSGGCCSSG

Legend:
itb1_human ITGB1, P05556 [1] = variants of: B1; conditions: with itb1_human ITGB1, P05556
ita2_human ITGA2, P17301 = variants of: B1; conditions: with ita2_human ITGA2, P17301
itb1_human ITGB1, P05556 [2] = variants of: B1; conditions: with itb1_human ITGB1, P05556; remark: listed apart in the source

Sequence of ita2_human ITGA2, P17301 (P17301 whole entry): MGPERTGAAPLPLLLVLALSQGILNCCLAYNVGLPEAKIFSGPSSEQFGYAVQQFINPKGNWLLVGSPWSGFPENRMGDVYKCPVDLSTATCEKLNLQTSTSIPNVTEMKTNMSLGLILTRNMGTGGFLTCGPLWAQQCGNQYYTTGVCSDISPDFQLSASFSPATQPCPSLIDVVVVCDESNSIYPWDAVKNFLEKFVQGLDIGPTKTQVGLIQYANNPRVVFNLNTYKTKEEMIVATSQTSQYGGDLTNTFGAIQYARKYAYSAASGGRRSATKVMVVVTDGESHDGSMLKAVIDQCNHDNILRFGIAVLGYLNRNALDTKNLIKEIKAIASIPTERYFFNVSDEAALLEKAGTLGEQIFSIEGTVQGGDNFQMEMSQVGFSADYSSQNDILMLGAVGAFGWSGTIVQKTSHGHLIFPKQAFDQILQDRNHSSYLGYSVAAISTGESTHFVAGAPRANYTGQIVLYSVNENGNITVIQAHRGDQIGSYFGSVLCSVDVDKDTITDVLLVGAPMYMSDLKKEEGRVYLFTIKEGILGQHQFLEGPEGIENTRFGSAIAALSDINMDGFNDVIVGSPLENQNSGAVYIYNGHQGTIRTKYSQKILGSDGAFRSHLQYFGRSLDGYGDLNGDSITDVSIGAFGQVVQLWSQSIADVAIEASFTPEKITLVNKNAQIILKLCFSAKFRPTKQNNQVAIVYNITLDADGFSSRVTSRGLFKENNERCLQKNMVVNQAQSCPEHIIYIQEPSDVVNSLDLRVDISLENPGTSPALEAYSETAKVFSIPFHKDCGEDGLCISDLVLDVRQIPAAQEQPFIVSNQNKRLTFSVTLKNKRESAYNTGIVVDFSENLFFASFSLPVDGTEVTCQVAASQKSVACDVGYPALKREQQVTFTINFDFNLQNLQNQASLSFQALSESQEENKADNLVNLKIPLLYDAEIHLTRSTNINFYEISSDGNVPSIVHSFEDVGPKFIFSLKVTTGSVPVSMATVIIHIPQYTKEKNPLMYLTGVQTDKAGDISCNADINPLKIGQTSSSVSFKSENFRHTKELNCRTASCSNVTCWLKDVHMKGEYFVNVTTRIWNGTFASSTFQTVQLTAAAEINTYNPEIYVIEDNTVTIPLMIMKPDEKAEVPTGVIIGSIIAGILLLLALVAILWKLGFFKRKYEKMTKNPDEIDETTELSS
Sequence of itb1_human ITGB1, P05556 (P05556 whole entry): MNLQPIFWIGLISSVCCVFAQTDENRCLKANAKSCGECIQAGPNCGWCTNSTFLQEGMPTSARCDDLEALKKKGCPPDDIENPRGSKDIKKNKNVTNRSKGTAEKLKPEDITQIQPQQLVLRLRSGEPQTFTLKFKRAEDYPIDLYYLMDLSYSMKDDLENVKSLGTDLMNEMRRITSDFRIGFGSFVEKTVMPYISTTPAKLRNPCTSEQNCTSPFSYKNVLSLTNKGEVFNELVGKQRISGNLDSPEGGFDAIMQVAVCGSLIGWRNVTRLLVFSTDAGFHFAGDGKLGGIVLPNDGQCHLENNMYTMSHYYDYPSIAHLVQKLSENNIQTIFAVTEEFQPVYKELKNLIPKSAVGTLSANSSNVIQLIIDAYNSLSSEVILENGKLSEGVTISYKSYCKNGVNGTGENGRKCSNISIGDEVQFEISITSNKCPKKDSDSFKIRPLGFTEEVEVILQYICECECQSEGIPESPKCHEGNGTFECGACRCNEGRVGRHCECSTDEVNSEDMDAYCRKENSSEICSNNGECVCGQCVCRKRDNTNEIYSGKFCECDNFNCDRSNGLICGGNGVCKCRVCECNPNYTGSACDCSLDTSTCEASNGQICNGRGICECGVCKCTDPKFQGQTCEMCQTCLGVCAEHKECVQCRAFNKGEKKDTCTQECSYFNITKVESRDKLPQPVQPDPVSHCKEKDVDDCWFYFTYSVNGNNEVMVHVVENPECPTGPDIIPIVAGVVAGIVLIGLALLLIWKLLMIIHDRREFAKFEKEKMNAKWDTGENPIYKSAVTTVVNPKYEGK

| Variant | effect of a mutation on the interaction (itb1_human ITGB1, P05556 [1]) | effect of a mutation on the interaction (ita2_human ITGA2, P17301) | effect of a mutation on the interaction (itb1_human ITGB1, P05556 [2]) |
| --- | --- | --- | --- |
| MAAAGGGAAAAAGRAYSFKVVLLGEGCVGKTSLVLRYCENKFNDKHITTLQASFLTKKLNIGGKRVNLAIWDTAGLERFHALGPIYYRDSNGAILVYDVTDEDSFQKVKNWVKELRKMLGNEICLCIVGNKIDLEKERHVSIQEAESYAESVGAKHYHTSAKQNKGIEELFLDLCKRMIETAQVDERAKGNGSSQAGAARRGVQIIDDEPQAQSSGGCCSSG [Q76L] | increasing interaction | increasing interaction |  |
| MAAAGGGAAAAAGRAYSFKVVLLGEGCVGKNSLVLRYCENKFNDKHITTLQASFLTKKLNIGGKRVNLAIWDTAGQERFHALGPIYYRDSNGAILVYDVTDEDSFQKVKNWVKELRKMLGNEICLCIVGNKIDLEKERHVSIQEAESYAESVGAKHYHTSAKQNKGIEELFLDLCKRMIETAQVDERAKGNGSSQAGAARRGVQIIDDEPQAQSSGGCCSSG [T31N] |  | decreasing interaction | decreasing interaction |
